The values below come from US20240410826A1.

Test [1] has as its target Human colostrum IgA (Catalog No. 16-13-090701, Athens Research and Technology) (human). The experiment in a line: single-objective ESM digital counting; 5 nM IgA flowed over anti-IgA fixed on ITO; KD=koff/kon.
For test [2] the target is unchanged. In words: ESM parallel kinetics; binding in free solution in a mixture of anti-IgA, IgA and IgM, 2.5 nM each; fit of IgA monomer ratio decay.
Test [3] has the same target. The experiment in a line: ESM end-point size histogram of IgA/BSA mixture tethered on ITO, before (12.1±1.2 nm) and after (13.6±2.1 nm) adding anti-IgA; ~420 molecules.
Test [4] has the same target. In words: ESM real-time charge (q) of PEG-tethered single IgA on ITO after adding anti-IgA; mean of ~60 binding events.
Test [5] has the same target. In words: single-objective ESM digital counting; 5 nM IgA flowed over anti-IgA fixed on ITO; first-order fit.
Test [6] has the same target. In words: ESM digital single-molecule counting; 20 nM IgA flowed over anti-IgA fixed on cover glass; KD=koff/kon.
Test [7] has the same target. The experiment in a line: ESM digital single-molecule counting; 20 nM IgA flowed over anti-IgA fixed on cover glass; first-order fit.
For test [8] the target is unchanged. In words: ESM counting of landing events of IgA monomer and complex on BSA-coated ITO; binding in free solution; fit of monomer ratio decay.
For test [9] the target is unchanged. The experiment in a line: ESM counting of landing events on BSA-coated ITO; 5 nM anti-IgA mixed with 5 nM IgA in free solution; fraction of IgA still free in the first minute.
The target is the same in test [10]. In words: ESM real-time size (DH) of PEG-tethered single IgA on ITO after adding anti-IgA; mean of ~60 binding events.
Test [11] has the same target. The experiment in a line: ESM counting of landing events on BSA-coated ITO; 5 nM anti-IgA mixed with 5 nM IgA in free solution; fraction of IgA still free in the third minute.

In general, Kd refers to the constant that tells how readily two partners part at equilibrium. As usually defined, the koff is a measure of how fast the partners let go of each other. As usually defined, the kon is the rate constant with which the complex forms. Take “Goat anti-human IgA (IgG, Catalog No. STAR141, BIO-RAD) (antibody)”: the Kd in [1] stood at 0.87 nM; in test [2], 1.84 nM; in [6] it was 0.873 nM; in test [8] it was 0.839 nM. The koff in [2] was 0.00148 s⁻¹; in [5] it was 0.0002 s⁻¹; in [7] it was 9.6e-05 s⁻¹; in test [8], 0.00173 s⁻¹. Moreover, the kon in [2] was found to be 881000 M⁻¹ s⁻¹; in test [5], 230000 M⁻¹ s⁻¹; in test [7], 110000 M⁻¹ s⁻¹; in test [8] it was 2.18e+06 M⁻¹ s⁻¹. The shift of the IgA size peak after antibody binding in [3] amounted to 1.5 nm. The average charge change on antibody binding in test [4] is 1.8 e. The IgA monomer ratio (first minute) in [9] is 1. The average size change on antibody binding in test [10] worked out at 1.7 nm. Besides, the IgA monomer ratio (third minute) in test [11] turned out to be 0.5.
